Biological target: T1, pBIND-IκBα (GAL4 DNA-binding domain fusion of IκBα) (UniProt P25963 1-317)
T1 construct: source: HEK293T, transfected, mammalian two-hybrid fusion
T1 sequence (looked up): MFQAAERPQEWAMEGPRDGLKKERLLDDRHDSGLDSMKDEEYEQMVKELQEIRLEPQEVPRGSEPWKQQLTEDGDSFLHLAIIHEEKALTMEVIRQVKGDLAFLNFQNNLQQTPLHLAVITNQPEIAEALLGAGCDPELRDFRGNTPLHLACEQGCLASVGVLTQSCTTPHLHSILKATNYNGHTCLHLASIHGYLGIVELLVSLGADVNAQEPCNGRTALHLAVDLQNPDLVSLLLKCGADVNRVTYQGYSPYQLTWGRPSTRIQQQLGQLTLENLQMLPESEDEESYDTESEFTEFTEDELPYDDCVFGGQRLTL
Assay: two-hybrid; mammalian two-hybrid (CheckMate, Promega) in HEK293T: pBIND-IκBα (GAL4), pACT-RSK3 (VP16), pG5luc; firefly luciferase normalised to renilla, 24 h after transfection; also with RSK3I added 4 h after transfection
Details: partners not purified

B1: pACT-RSK3 (VP16 activation domain fusion of RSK3) (natural protein, UniProt Q15349 1-733, looked up)
chain: MDLSMKKFAVRRFFSVYLRRKSRSKSSSLSRLEEEGVVKEIDISHHVKEGFEKADPSQFELLKVLGQGSYGKVFLVRKVKGSDAGQLYAMKVLKKATLKVRDRVRSKMERDILAEVNHPFIVKLHYAFQTEGKLYLILDFLRGGDLFTRLSKEVMFTEEDVKFYLAELALALDHLHSLGIIYRDLKPENILLDEEGHIKITDFGLSKEAIDHDKRAYSFCGTIEYMAPEVVNRRGHTQSADWWSFGVLMFEMLTGSLPFQGKDRKETMALILKAKLGMPQFLSGEAQSLLRALFKRNPCNRLGAGIDGVEEIKRHPFFVTIDWNTLYRKEIKPPFKPAVGRPEDTFHFDPEFTARTPTDSPGVPPSANAHHLFRGFSFVASSLIQEPSQQDLHKVPVHPIVQQLHGNNIHFTDGYEIKEDIGVGSYSVCKRCVHKATDTEYAVKIIDKSKRDPSEEIEILLRYGQHPNIITLKDVYDDGKFVYLVMELMRGGELLDRILRQRYFSEREASDVLCTITKTMDYLHSQGVVHRDLKPSNILYRDESGSPESIRVCDFGFAKQLRAGNGLLMTPCYTANFVAPEVLKRQGYDAACDIWSLGILLYTMLAGFTPFANGPDDTPEEILARIGSGKYALSGGNWDSISDAAKDVVSKMLHVDPHQRLTAMQVLKHPWVVNREYLSPNQLSRQDVHLVKGAMAATYFALNRTPQAPRLEPVLSSNLAQRRGMKRLTSTRL
notes: RSK3 (RPS6KA2) cloned into pACT; source: HEK293T, transfected, mammalian two-hybrid fusion
  fold luciferase activity over the pBind-IκBα vector-only control: ~3 fold

From paper PMC8231827, “A Novel Protein–Protein Interaction between RSK3 and IκBα and a New Binding Inhibitor That Suppresses Breast Cancer Tumorigenesis” (Cancers, 2021)
